Source: patent publication US20190022241A1 (AbbVie / Abbott, published 2019)

T1: human SEZ6L ECD-His (human, UniProt Q9BYH1 29-955)
T1 construct: whole entry named
T1 sequence: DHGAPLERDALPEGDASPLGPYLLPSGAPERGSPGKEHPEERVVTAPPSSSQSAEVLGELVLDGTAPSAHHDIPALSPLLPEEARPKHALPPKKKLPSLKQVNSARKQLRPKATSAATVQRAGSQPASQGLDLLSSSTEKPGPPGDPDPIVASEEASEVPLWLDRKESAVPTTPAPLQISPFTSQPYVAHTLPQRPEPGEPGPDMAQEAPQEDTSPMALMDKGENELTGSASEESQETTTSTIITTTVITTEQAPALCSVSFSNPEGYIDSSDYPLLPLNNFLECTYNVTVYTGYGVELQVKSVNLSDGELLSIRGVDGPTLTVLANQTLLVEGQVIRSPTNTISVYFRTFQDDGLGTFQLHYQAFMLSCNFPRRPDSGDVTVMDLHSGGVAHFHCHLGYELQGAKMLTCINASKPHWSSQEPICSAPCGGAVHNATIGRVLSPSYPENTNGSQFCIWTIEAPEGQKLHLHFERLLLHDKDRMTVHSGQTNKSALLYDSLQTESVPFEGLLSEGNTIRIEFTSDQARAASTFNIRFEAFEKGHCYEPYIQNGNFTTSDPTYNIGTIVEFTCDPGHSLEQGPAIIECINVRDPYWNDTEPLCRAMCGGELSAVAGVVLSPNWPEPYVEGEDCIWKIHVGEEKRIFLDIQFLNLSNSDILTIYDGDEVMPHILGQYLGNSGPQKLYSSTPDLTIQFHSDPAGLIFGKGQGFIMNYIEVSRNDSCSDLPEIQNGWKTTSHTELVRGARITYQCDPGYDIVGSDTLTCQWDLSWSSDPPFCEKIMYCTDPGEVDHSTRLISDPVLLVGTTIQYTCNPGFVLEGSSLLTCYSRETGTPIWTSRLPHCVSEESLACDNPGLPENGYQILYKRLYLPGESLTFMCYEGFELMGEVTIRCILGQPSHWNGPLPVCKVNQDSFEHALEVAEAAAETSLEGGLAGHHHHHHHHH

T2: rat SEZ6 on RIN-m5F cells (rat, UniProt Q7TSK2 20-991 (mouse entry))
T2 construct: endogenous on RIN-m5F cells; also called rSEZ6
T2 chain: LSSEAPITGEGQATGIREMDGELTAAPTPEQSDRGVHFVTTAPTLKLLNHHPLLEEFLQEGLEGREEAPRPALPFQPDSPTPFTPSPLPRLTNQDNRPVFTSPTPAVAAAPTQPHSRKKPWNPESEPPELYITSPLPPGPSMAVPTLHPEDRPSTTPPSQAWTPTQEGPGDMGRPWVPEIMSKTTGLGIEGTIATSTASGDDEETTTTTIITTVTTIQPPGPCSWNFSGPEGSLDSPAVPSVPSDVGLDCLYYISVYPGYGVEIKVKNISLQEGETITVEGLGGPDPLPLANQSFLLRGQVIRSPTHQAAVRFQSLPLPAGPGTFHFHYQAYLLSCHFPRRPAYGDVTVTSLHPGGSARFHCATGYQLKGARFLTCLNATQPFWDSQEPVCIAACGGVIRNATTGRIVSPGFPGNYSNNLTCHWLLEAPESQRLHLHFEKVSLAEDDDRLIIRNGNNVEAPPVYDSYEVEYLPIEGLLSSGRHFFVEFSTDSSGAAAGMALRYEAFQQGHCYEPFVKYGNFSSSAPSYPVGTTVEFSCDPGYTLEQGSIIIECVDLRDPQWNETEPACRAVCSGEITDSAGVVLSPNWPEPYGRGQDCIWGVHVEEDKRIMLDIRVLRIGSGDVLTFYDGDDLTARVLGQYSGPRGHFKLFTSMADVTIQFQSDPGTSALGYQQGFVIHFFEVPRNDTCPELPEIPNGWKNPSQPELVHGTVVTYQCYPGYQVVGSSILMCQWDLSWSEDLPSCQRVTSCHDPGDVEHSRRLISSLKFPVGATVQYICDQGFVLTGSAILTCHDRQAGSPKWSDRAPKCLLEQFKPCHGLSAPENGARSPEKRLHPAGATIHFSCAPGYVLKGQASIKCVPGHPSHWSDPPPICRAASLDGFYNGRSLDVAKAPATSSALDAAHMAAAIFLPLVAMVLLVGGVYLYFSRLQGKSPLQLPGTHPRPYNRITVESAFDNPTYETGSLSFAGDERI

T3: extracellular domain of cynomolgus SEZ6 on yeast (cynomolgus, UniProt Q53EL9 23-925 (human entry))
T3 construct: yeast display; the whole entry is named; also called cSEZ6; cynomolgus SEZ6 ECD
T3 chain: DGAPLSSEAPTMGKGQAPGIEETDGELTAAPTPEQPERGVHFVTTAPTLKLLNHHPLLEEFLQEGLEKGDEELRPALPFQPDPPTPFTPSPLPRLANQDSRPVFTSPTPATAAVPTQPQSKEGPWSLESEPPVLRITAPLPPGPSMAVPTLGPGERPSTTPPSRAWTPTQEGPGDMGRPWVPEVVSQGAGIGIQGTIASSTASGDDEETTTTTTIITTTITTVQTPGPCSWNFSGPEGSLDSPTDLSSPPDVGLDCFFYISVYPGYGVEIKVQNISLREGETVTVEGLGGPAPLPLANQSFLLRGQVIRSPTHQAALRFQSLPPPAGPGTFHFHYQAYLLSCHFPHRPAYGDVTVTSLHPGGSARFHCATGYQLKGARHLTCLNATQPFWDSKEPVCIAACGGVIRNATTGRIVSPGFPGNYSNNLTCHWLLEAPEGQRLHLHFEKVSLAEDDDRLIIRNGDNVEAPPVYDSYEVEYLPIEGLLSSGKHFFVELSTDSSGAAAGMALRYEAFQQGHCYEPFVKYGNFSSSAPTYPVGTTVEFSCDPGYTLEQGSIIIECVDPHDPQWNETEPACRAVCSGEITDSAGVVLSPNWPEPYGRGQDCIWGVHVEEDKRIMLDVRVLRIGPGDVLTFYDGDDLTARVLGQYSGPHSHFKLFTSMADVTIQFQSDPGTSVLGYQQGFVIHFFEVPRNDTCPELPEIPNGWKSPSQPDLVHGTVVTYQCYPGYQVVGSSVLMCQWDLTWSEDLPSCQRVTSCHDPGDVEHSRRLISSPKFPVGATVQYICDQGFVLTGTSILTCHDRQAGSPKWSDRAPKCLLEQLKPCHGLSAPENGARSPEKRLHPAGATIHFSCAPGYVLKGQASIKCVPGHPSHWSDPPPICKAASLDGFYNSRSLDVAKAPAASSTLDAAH

T4: rSEZ6-ECD-His (rat, UniProt Q7TSK2 20-922 (mouse entry))
T4 construct: the whole entry is named; also called rat recombinant SEZ6-His; rat SEZ6 ECD
T4 chain: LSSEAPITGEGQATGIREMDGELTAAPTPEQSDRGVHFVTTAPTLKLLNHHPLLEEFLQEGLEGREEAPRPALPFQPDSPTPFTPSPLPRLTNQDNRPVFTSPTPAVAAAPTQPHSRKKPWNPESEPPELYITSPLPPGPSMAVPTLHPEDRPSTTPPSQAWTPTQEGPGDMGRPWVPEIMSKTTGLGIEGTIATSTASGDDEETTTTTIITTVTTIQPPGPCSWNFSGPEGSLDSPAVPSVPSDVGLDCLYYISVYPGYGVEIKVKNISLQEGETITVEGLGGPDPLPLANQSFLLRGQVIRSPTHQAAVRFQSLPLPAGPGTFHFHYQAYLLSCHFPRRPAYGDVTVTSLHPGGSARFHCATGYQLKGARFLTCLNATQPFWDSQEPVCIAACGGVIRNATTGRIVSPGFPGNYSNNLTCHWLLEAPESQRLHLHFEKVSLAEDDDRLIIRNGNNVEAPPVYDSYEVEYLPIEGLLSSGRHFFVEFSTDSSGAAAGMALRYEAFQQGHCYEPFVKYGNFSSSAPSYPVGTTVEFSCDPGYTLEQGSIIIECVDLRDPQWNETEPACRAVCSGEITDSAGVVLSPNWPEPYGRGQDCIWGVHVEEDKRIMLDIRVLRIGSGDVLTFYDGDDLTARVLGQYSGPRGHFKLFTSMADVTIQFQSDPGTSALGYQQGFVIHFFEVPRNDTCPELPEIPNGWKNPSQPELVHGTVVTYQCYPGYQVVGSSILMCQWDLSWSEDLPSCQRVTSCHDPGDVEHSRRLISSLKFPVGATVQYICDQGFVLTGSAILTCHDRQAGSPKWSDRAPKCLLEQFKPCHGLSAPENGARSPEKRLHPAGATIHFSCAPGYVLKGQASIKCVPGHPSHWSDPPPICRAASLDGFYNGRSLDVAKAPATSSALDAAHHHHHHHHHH

B1: SC17.24 (antibody, V domains shown)
VH: QVQLQQSDAELVKPGASVKISCKVSGYTFTDHTIHWMKQRPEQGLEWIGYIYPRDGSTKYNEEFKGKATLTADKSSSTAYMQLNSLTSEDSAVYFCARSYSNYFDYWGQGTTLTVSS
VL: DIVMSQSPSSLAVSVGEKVTMSCKSSQSLLYSSNQKSYLAWYQQKPGQSPKLLIYWASTRESGVPDRFTGSGSGTDFTLTISSVQAEDLAVYYCKQSYNLRTFGGGTKLEIK
notes: murine mAb
B2: hSC17.46 (antibody, human IgG1, V domains shown)
VH: QVQLVQSGAEVKKPGASVKVSCKASGYTFTSYWINWVRQAPGQGLEWIGNIFPDTTTTNYNEKFKGRVTLTRDTSISTAYMELSRLRSDDTAVYYCAREYYDGTYDAMDYWGQGTLVTVSS
VL: AIQMTQSPSSLSASVGDRVTITCKASQSVNNDVAWYQQKPGKAPKLLIYYASNRYTGVPSRFSGSGSGTDFTLTISSLQPEDFATYFCQQDYSSPRTFGQGTKLEIK
notes: humanized, human IgG1/kappa
B3: SC17.28 (antibody, V domains shown)
VH: QVHLPQSRPELVKPGASVKISCKASGYGFTRSYIHWVKQRPGQGLEWIGYISSGSGGTTYNQKFKGKASLTADNPSSTAYMHLSSLTSEDSAIYFCARGGVRYFDVWGAGTTVTVSS
VL: DILLTQSPAILSVSPGEGVSFSCRASQSIGTSIHWYQQRTNGSPRLLIKYASESISGIPSRFSGSGSGTDFTLRINSLESEDIADYYCQQSNSWPLTFGAGTKLELK
notes: murine mAb
B4: SC17.36 (antibody, V domains shown)
VH: EVQLQESGPSLVKPSQSQSLTCSVTGDSITSDYWNWIRKFPGKKVEYMGYINYSGSTYYNPSLKSRISITRDTSKNQYYLQLNSVTSEDTATYYCARTSYYNKFLPFAYWGQGTLVTVSA
VL: QIVLTQSPALMSASPGEKVTMTCSASSSVSYMYWYQQKPRSSPKPWIYLTSNLASGVPARFSGSGSGTSYSLTISSMEAEDAATYYCQQWSSNPPTFGGGTKLEIK
notes: murine mAb

Tests used:
human SEZ6L ECD-His = biological target: T1, human SEZ6L ECD-His; test: ELISA on plates coated with SEZ6L protein
Method: To determine cross reactivity to family member proteins, SEZ6L and SEZ6L2, an ELISA-based assay was used. Plates were coated with SEZ6, SEZ6L, or SEZ6L2 proteins at 0.2 μg/mL in PBS overnight. After washing with PBS containing 0.05% (v/v) Tween 20 (PB ST), the wells were blocked with 2% (w/v) BSA in PBS (PB SA), 100 μL/well for 1 hour at room temperature. Antibody was then added at 1 μg/mL in 100 μL PBSA for 1 hour at room temperature. After washing with PBST, 100 μL/well HRP-labeled goat anti-mouse IgG diluted 1:2,000 in PBSA for 1 hour at room temperature. […] After developing, an equal volume of 2M H₂SO₄ was added to stop substrate development and analyzed by spectrophotometer at OD 450.

[1] = biological target: T2, rat SEZ6 on RIN-m5F cells; test: flow cytometry on RIN-m5F cells expressing rat SEZ6, verified by BLI or SPR on rat SEZ6-His
Method: (§1) Briefly 1×10⁵ cells per well of Neuro2a, RIN-5mF, or yeast displaying cynomolgus SEZ6 cells were incubated for 30 minutes with 50 μL PBS (2% FCS) buffer with 5 μg/mL antibody. […] After incubating for 15 minutes cells were washed twice with the PBS buffer and re-suspended in the same with DAPI for flow cytometry analysis of Neuro2a and Rin-m5F or buffer without DAPI for flow cytometric analysis of yeast cells with cSEZ6.
To verify the cross reactivity data above for rat SEZ6 and to determine the affinity and kinetic constants kₒₙ and koff of the selected effectors, either bio-layer interferometry analysis on a ForteBio RED (ForteBio, Inc.) or surface plasmon resonance on a Biacore 2000 (GE Healthcare) were conducted.

human SEZ6L2 ECD-His [2] = biological target: T5, human SEZ6L2 ECD-His (human, UniProt Q6UXD5 28-843); test: ELISA on plates coated with SEZ6L2 protein
T5 construct: whole entry named
T5 sequence (Q6UXD5 other isoform, or with tags, fused parts or gaps): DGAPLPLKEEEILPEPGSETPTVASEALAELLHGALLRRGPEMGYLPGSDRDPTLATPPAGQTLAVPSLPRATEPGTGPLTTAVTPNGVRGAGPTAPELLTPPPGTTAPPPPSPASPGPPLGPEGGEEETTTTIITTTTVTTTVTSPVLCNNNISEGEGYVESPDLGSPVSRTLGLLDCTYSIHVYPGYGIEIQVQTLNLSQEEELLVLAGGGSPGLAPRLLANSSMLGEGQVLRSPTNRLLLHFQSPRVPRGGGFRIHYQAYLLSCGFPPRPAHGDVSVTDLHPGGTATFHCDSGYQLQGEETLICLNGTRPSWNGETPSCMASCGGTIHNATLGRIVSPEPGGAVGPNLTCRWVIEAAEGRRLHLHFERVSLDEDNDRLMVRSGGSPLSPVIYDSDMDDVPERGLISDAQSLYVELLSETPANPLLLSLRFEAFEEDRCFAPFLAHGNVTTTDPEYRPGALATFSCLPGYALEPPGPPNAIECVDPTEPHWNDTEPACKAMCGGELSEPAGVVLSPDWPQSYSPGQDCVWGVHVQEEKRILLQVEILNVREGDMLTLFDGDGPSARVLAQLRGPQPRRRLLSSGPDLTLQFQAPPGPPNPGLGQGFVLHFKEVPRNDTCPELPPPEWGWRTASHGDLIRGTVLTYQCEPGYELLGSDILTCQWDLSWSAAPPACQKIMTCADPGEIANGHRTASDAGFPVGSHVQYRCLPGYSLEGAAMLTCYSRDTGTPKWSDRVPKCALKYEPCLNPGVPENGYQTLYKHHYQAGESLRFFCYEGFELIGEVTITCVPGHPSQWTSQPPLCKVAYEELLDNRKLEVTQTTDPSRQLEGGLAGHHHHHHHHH

[3] = biological target: T3, extracellular domain of cynomolgus SEZ6 …; test: flow cytometry, yeast displaying cynomolgus SEZ6 ECD, 5 ug/mL antibody
Method: as §1

hSEZ6-ECD-His [4] = biological target: T6, hSEZ6-ECD-His (human, UniProt Q53EL9 20-925); test: bio-layer interferometry (ForteBio RED) or surface plasmon resonance (Biacore 2000) on human SEZ6-His; the table does not say which; column Hu Affinity (Kd, nM)
T6 construct: the whole entry is named; also called recombinant SEZ6-His; human recombinant SEZ6-His
From the text: (§2) Various methods were used to analyze the binding and immunochemical characteristics of selected SEZ6 modulators generated as set forth above.

[5] = biological target: T7, mouse SEZ6 on Neuro2a cells (mouse, UniProt Q7TSK2 20-991); test: flow cytometry, Neuro2a cells, 5 ug/mL antibody
T7 construct: endogenous on Neuro2a cells; also called murine SEZ6; mSEZ6
Method: as §1

hSEZ6-ECD-His [6] = biological target: T6, hSEZ6-ECD-His; test: SPR, Biacore 2000 (data not shown)
rSEZ6-ECD-His = biological target: T4, rSEZ6-ECD-His; test: bio-layer interferometry (ForteBio RED) or surface plasmon resonance (Biacore 2000) on rat SEZ6-His; the table does not say which; column Rat XR (Kd, nM)
From the text: as §2

[7] = biological target: T2, rat SEZ6 on RIN-m5F cells; test: flow cytometry, RIN-m5F cells, 5 ug/mL antibody
Method: as §1

[8] = biological target: T7, mouse SEZ6 on Neuro2a cells; test: flow cytometry on Neuro2a cells expressing mouse SEZ6
Method: as §1

human SEZ6L2 ECD-His [9] = biological target: T5, human SEZ6L2 ECD-His; test: mark of Table 5 for antibodies that bind SEZ6L2

| Binder | binding result (human SEZ6L ECD-His) | binding result [1] | binding result (human SEZ6L2 ECD-His [2]) | binding result [3] | Kd (hSEZ6-ECD-His [4]) [nM] | binding result [5] | binding result (hSEZ6-ECD-His [6]) | Kd (rSEZ6-ECD-His) [nM] | binding result [7] | binding result [8] | binding result (human SEZ6L2 ECD-His [9]) |
| --- | --- | --- | --- | --- | --- | --- | --- | --- | --- | --- | --- |
| B1 | no binding (tested: 1 µg/mL) | no binding (tested: 5 µg/mL) | no binding (tested: 1 µg/mL) | binds | 5.1 | binds |  |  |  |  |  |
| B2 |  |  |  |  |  |  | binds |  |  |  |  |
| B3 | no binding (tested: 1 µg/mL) |  |  |  | 22.1 |  |  | 31 | binds | no binding (tested: 5 µg/mL) | binds |
| B4 | no binding (tested: 1 µg/mL) | no binding (tested: 5 µg/mL) | no binding (tested: 1 µg/mL) | binds | 6.3 |  |  |  |  | no binding (tested: 5 µg/mL) |  |
